# Assay results: patent US20260146247A1
# Target: CD4 (human) (UniProt P01730)
# Test: cell-based or functional assay
substance,measurement,value
HIV-1 envelope glycoprotein (Env) (from UniProt P04578 33-856),"transduction (mNeonGreen+) of CD4+ cells in a mixture of CD4+ and CD8+ primary human T cells treated with Env-Cas9-VLPs, highest treatment dose",53.2%
